For this series, the target named is Nucleoprotein (NP) (Influenza A virus, UniProt P03466 SEQ:1-498). The series can be described thus: SPR; 2 uM, 22 C. The settings on record: tags: His tag (pET28a, Co2+ resin purification), E. coli; label: 5'-amino-C12 linker (microarray); hairpin with bulge, internal loop and lateral small hairpin.
Nucleoprotein (NP), sequence (P03466 whole entry): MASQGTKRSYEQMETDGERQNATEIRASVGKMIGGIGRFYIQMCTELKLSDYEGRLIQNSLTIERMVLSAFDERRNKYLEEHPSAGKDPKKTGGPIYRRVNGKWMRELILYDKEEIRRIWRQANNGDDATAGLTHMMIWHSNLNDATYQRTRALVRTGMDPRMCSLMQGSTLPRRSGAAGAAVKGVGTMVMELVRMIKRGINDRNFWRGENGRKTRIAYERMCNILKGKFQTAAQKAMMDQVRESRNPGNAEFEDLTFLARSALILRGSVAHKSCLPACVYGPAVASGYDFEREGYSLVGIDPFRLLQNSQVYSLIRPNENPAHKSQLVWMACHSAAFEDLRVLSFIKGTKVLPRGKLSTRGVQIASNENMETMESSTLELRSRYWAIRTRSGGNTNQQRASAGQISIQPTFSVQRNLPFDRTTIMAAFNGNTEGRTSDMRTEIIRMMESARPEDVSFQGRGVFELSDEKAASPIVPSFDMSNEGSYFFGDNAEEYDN

As for UGCCCUGACCAUCCUGAGGGACGCAUUGGCCGGGCA (ssRNA) [M1R9C6 36-mer], the binding result was “no binding”.
To UGCCUGACCACUCAGAAUCGAGCGCAUUGGCCGGCA (ssRNA) [M1R9C1 36-mer] belongs “no binding”.
